Assay results: the DeepSol protein solubility set

experiment: soluble on expression in E. coli; label from the status in PepcDB or PDB records

| Sequence | soluble on expression in E. coli |
| --- | --- |
| MSLSQVQVDRALAGLIVRAPLPAGWRAERMSALDVAAVAAVEQAAFAFPWSRGNFEDSLKSGHLGIVLRDGGNQVAGYLILMPVVDEMHLLNVTVAPAWQRQGLGRWLLRAAQALTLAHGFASLLLEVRPSNAGAIALYRRVGFAEIGRRKRYYPAENNTREDALVMRIACEAGGVEAAEGHHHHHH | not soluble |
| MSLKSVVNDTDGIVRVAKSVIPEIKHQDEVRVKIASSGLCGSDLPRIFKNGAHYYPITLGHEFSGYIDAVGSGVDDLHPGDAVACVPLLPCFTCPECLKGFYSQCAKYDFIGSRRDGGFAEYIVVKRKNVFALPTDMPIEDGAFIEPITVGLHAFHLAQGCENKNVIIIGAGTIGLLAIQCAVALGAKSVTAIDISSEKLALAKSFGAMQTFNSSEMSAPQMQSVLRELRFNQLILETAGVPQTVELAVEIAGPHAQLALVGTLHQDLHLTSATFGKILRKELTVIGSWMNYSSPWPGQEWETASRLLTERKLSLEPLIAHRGSFESFTQAVRDIARNAMQGKVLLIPEGHHHHHH | soluble |
| METTKTNVLEAGAKVLQSNGPVGKLDIYLVGFHPMKDAPEQQMEAHHYCQQVNQDLAQCALYDGNTAEANLTGIEYIISESLFAQLPAQERAFWHPHNGEILSGQLSAPNLPLVAEKELMRSKMNSYGKTWHTWHSRKGTAPGDTLPLGEPMLAWSFSRDGEIQQPLIEQRDKAVTISTAERRADRKDLTELAKPQHGVDALHRHFPEATPIPGVVDAEATAQLEHHHHHH | soluble |
| NYNHPFTQLGNQVFPTTPIVSGVRGRVVEVPVQANQPLKTGDILFKIDPVPFEAEVARLEAKVKEASQGALGLESDLREAEAAVLKAQADRDKAQREFSRYQRGFDRGAFTEQDLDTRRQAYKAAEAMLDVAILQQEQAQIALDSEIGGENTQVAQLLAELRKAEFNLEQTIVRAPTDGYVTQLALR | soluble |
| MGSDKIHHHHHHMPGLPRASGSRFSRRLWSNLTWSGLLSMAVMPRHTSIARPPHGMMDPSGTTVWSYDTQGRIIGKTQVVDGASLVTSYVYDGDGRLASLTYPSGEVINYSWSNGQLTGIFRGTSLIASGITCHPFGPVKSWTLDNGQNIVRNFDLDGRITSYSLGSLAYDAASRITGISRGGISILGNSKTYGYDATDRLISFSDGTSAETYAYDASGNRTGQTINGMAYTYSVSYASNRLDAMAGPGSSLHYSYDANGSLVNDGQRSFGYDASGRLSEAVGLASYSFNGLGQRVKKNAGTVIMFVFDEGGQLIGEYGAAGNPIQETVWLDDVPLAVLRYGTTYYIHTDHLNTPPADS | not soluble |
| MLEKYGRCRKRRLLKEVVLILLVAAVQPVLSSSKSTPEAQLTDVELTCPDDWIRHGTKCYLPFNIHQSWPFAMTTCQRYGSTLAKIQTGSENQFIASLLSKPGKPTEGKEYWIGLTVEVLDDDELYLWSDGTPTSRYVGFWRQDQPNFLNGSCALGKVERKDLEWRLDTCNLLRRFVCERPACVQGSYFCSSGSCISESKKCNGHNDCDDGSDEQNCPSAFQPNCRTYEKGESGQLSSTNYPNSYDPNLNCRHVLEGPINSRIELTIEHFETEPDFDILTVLDGGPAENSTTVIKRLSGSMETVQTITSATNMMIVQFRTDAQSNARGWQLKWRAVPFTCGGHFTAQAYIQSFVSPGYPKTFANGAECVWTVESTPGQVVSLIMKSGKTWG | not soluble |
| SLKKWLVTIAALWLAGCSSGEINKNYYQLPVVQSGTQSTASQGNRLLWVEQVAVPDYLAGNGVVYQTSDVKYVIANNTLWASPLDQQLRNTLVANLSTQLPGWVVASQPLGSAQDTLNVTVTEFNGRYDGKVIVSGEWLLNHQGQLIKRPFRLEGMQTQDGYDEMVKVLASVWSQEAASIAQEIKRLP | soluble |
| MAHHHHHHMKEYLAQKEYRAKEYRAKDYPAKDYSGKKEYTSKKAYTPKKEYTAIRGCAVENAYFDEKAYTGCKANQGEEAHKNDASVVEGGKSKKNEERVLAGMIKILEEMKESDDASNAVDPGFN | not soluble |
| MAIKLKSPWEIERMREAGALLTEVVEEVARHVEPGVSTWELDQIAYEAIRKRKAKPAFLGLYGFPATLCTSVNEVVVHGIPSKEPLKEGDILSVDVGLIYQGFAADMARTFPVGRVSPEAERLIRDTEAAFWEGMKYLRPGFRLGDVGHAIQTFLESRGYGVVREFVGHGVGREIHEDPQVPNFGKPGTGPKIRPGMTLALEPMVTLRPAPVVILDDGWAASAGRGNLAAHYENTVLVTEEGPELLTGVALARAE | soluble |
